Here are results for 16 sequences from the nanobody polyreactivity screen of Harvey et al. (2022).

The nature of this data set: yeast display, Sf9 membrane polyspecificity reagent, FACS + sequencing; frameworks hold sequencing errors. The procedure, abridged:
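In a synthetic yeast display library (Saccharomyces cerevisiae BJ5465), nanobody expression was induced with galactose for 36–48 hours. FACS gates were set low and high (top ~1%) using anti-HA fluorescence for expression and streptavidin fluorescence for binding of the Sf9 membrane reagent. Each polyreactivity label is drawn from the gate of origin.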
On to “QVQLVESGGGLVQAGGSLRLSCAASGRILGTYAMGWYRQAPGKERELVAAISGSGGDTYYADSVKGRFTISRDNAKNTVYLQMNSLKPEDTAVYYCAAEVPFTGGFFKYYYWGQGTQVTVSS”, for which the “polyreactivity (PSR sort gate)” value is “low polyreactivity”.

For the sequence “QVQLVESGGGLVQAGGSLRLSCAASGRILGVNAMGWYRQAPGKERELVAAINWNGGSTYYADSVKGRFTISRDNAKNTVYLQMNSLKPEDTAVYYCAAERSLYYVYSREYWGQGTQVTVSS”, the “polyreactivity (PSR sort gate)” value is reported as “low polyreactivity”.

For “QVQLVESGGGLVQAGGSLRLSCAASGRILGYYGMGWYIQAPGKERELVAAITSGGGSTYYADSVKGRFTISRDNAKNTVYLQMNSLKPEDTAVYYCNAVPSQHDEFDYWGQGTQVTVSS”, the “polyreactivity (PSR sort gate)” value was “low polyreactivity”.

Turning to “QVQLVESGGGLVQAGGSLRLSCAASGRILHFYAMGWYRQAPGKERELVAAISKSGGSTYYADSVKGRFTISRDNAKNTVYLQMNSLKPEDTAVYYCAASFIRRGSYSTTSAPGRYYWGQGTQVTVSS”, the “polyreactivity (PSR sort gate)” value was “high polyreactivity”.

As for “QVQLVESGGGLVQAGGSLRLSCAASGRILHIYAMGWYRQAPGKERELVAAISWIGTSTYYADSVKGRFTISRDNAMNTVFLQMNSLKPEDTAVYYCAATGPRMYYWGQGTQVTVSS”, the “polyreactivity (PSR sort gate)” value is “high polyreactivity”.

For “QVQLVESGGGLVQAGGSLRLSCAASGRILHRNAMGWYRQAPGKERELVSAIRSRGGGTYYADSVKGRFTISRDNAKNTVYLQMKSLKPEDTAVYYCNTDRSTRTVGPGLYGYWGQGTQVTVSS”, the “polyreactivity (PSR sort gate)” value is given as “low polyreactivity”.

Consider “QVQLVESGGGLVQAGGSLRLSCAASGRILKRKAMGLYRQAPGKERELVAAISWSTGTTYYADSVKGRLTISVDNAKNTVYLQMNSLKPEDTAVYYCAKKIVSGRRVDRNDYWGQGTQVTVSS”, for which the “polyreactivity (PSR sort gate)” value is given as “low polyreactivity”.

As for “QVQLVESGGGLVQAGGSLRLSCAASGRILKVYAMGWYRQAPGKERELVAAISVNGGRTYYADSVKGRFTISRDNAKNTVYLQMNSLKPEDTAVYYCAKRLYKPGNVFYSVDQSDYWGQGTQVTVSS”, the “polyreactivity (PSR sort gate)” value is reported as “low polyreactivity”.

“QVQLVESGGGLVQAGGSLRLSCAASGRILNVYAMGWYRQAPGKERELHAAINYRGTNTYYADSVKGRFTISRDNAKNTVFLQMNSLKPEDTAVYYCAAERWYYNVYAEYSWGQGTQVTVSS”: the “polyreactivity (PSR sort gate)” value was “high polyreactivity”.

With “QVQLVESGGGLVQAGGSLRLSCAASGRILNVYAMGWYRQAPGKERELVAAINYRGTNTYYADSVKGRFTISRDNAKNTVYLQMNSLKPEDTADYYCAARRHVYLRGSTFEFNYWGQGTHVTVSS”, the “polyreactivity (PSR sort gate)” value is recorded as “high polyreactivity”.

With “QVQLVESGGGLVQAGGSLRLSCAASGRILNWNVMGWYRQAPGKERELVAGISSDGSTYADSVKGRFTISRDNAKNTVYFQMNSLKPEDTAVYYCAADRVGLSRGYDYWGQGTQVTVSS”, the “polyreactivity (PSR sort gate)” value is given as “low polyreactivity”.

As for “QVQLVESGGGLVQAGGSLRLSCAASGRILPLYAMGWSRQAPGKERELVATMILDGDSTYYADSVKGRFTISRDNAKNTVYLQMNSQKPEDTAVYYCNDDYTPWGRGYPYDYWGQGSQVTVSS”, the “polyreactivity (PSR sort gate)” value is listed as “low polyreactivity”.

With “QVQLVESGGGLVQAGGSLRLSCAASGRILPSNAMGWYRQAPGKDRELVATISSSGGDTYYADSVKGRFTISRDNAKNTVYLQMKSLKPEDTAVYSCNAAGRTPSTGFDYDYWGQGTQVTVSS”, the “polyreactivity (PSR sort gate)” value is given as “low polyreactivity”.

Take “QVQLVESGGGLVQAGGSLRLSCAASGRILPYNVMGWFRQARGKEREFVAAITGSGGDTYYADSVKGRFTISRDNAKNTVYLQMNSLKPEDTAVYYCAAAPYIGGSFGQTPGSGYWGQGTQVTVSS”: the “polyreactivity (PSR sort gate)” value was “low polyreactivity”.

For the sequence “QVQLVESGGGLVQAGGSLRLSCAASGRILPYYAMGWYRQEPGKERELVAAITGGGGSTYYADSVKGRFTISRDNAKNTVYLQMNSLKPEDTAVYYCAKPRGRASLALYRFSLYYYWGQGTQVTVSS”, the “polyreactivity (PSR sort gate)” value is on record as “high polyreactivity”.

As to “QVQLVESGGGLVQAGGSLRLSCAASGRILRGYAMGWYRQAPGKERELVAAINSGGDTYYADSVKGRFTISRDNAKNTVYLQMNSLKPEDTAVYYCASDYWGWIYLYGDHLVDYRGQGTQVTVSS”, the “polyreactivity (PSR sort gate)” value is given as “low polyreactivity”.
